The target of experiment [1] is 人源CD47 (on cells: hCD47-overexpressing CHO-K1; Raji) (human) (UniProt Q08722). Kind of experiment: flow cytometry on Raji cells (endogenous human CD47); Blank 58.3. A general note: A flow cytometer gives signals particle by particle.
Experiment [2] addresses 食蟹猴CD47 (on overexpressing CHO-K1 cells) (cynomolgus monkey). Kind of experiment: flow cytometry, purified antibody 10 ug/ml on CHO-K1 overexpressing cynomolgus CD47.
The target in experiment [3] is 人源CD47 (on cells: hCD47-overexpressing CHO-K1; Raji) (human) (UniProt Q08722). Kind of experiment: flow cytometry, purified antibody 10 ug/ml on CHO-K1 overexpressing human CD47.
For experiment [4], the target named is 食蟹猴CD47 (on overexpressing CHO-K1 cells) (cynomolgus monkey). Kind of experiment: flow cytometry, phage supernatant; MFI on cynomolgus CD47 CHO-K1 over MFI on wild-type CHO-K1.
Experiment [5] deals with 生物素化人源CD47蛋白 (购自Acro Biosystem) (human) (UniProt Q08722). Kind of experiment: phage ELISA; biotinylated human CD47 on streptavidin plate; ratio of experiment to control. Background: In an ELISA, binding on a coated surface is turned into a signal by an enzyme label.
Experiment [6] addresses 食蟹猴CD47 (on overexpressing CHO-K1 cells) (cynomolgus monkey). Kind of experiment: flow cytometry, phage supernatant on CHO-K1 overexpressing cynomolgus CD47, anti-M13 then fluorescent secondary.
The target in experiment [7] is 人源CD47 (on cells: hCD47-overexpressing CHO-K1; Raji) (human) (UniProt Q08722). Kind of experiment: flow cytometry, phage supernatant on CHO-K1 overexpressing human CD47, anti-M13 then fluorescent secondary.
The target is the same in experiment [8]. Kind of experiment: flow cytometry, phage supernatant; MFI on human CD47 CHO-K1 over MFI on wild-type CHO-K1.
The target of experiment [9] is 生物素化人源CD47蛋白 (购自Acro Biosystem) (human) (UniProt Q08722). Kind of experiment: phage ELISA; biotinylated human CD47 on streptavidin plate, phage supernatant, HRP anti-M13.

B1: 人源化抗体ID 4 (antibody, human IgG4 S228P, kappa, V domains shown)
VH: QVQLVQSGAEVKKPGASVKVSCKASGYTFTSYWMNWVRQAPGQGLEWMGRIDSSDSETHYNQKFKDRVTMTRDTSTSTVYMELSSLRSEDTAVYYCARQGEGLRRSWFPYWGQGTLVTVSS
VL: DIVMTQSPDSLAVSLGERATINCRASKSVSTSGYSYIHWYQQKPGQPPKLLIYVASNLQSGVPDRFSGSGSGTDFTLTISSLQAEDVAVYYCQHIRELPWTFGQGTKVEIKR
Consider B1, for which the results for the MFI in experiment [1], in experiment [2] and in experiment [3] were 14200 MFI, 786 MFI and 2040 MFI, respectively.

B2: 单克隆抗体ID 1 (phage粗培液, phage-displayed) (antibody, V domains shown)
VH: QVQLQQPGAELVKPGAPVKLSCKASGYTFTSYWMNWVKQRPGRGLEWIGRIDSSDSETHYNQKFKDKATLTVDKSSSTAYIQLSSLTSEDSAVYYCARQGEGLRRSWFPYWGQGTLVIVSA
VL: DIVLTQSPASLAVSLGQRATISCRASKSVSTSGYSYIHWYQQKPGQPPKLLIYVASNLQSGVPARFSGSGSGTDFTLNIHPVEEEDAATYYCQHIRELPWTFGGGTKLEIK
As for B2, the c-CHOK1/CHOK1 (MFI ratio to wild-type CHO-K1) in [4] was found to be 10.7. Besides, the 实验/对照 (OD450 ratio) in experiment [5] came out at 50.6. The MFI in experiment [6] was 14600 MFI; in experiment [7], 18300 MFI. The h-CHOK1/CHOK1 (MFI ratio to wild-type CHO-K1) in experiment [8] worked out at 13.4. In addition, the OD450 (实验) in [9] was 2.84 OD450.

Source of the values: patent CN116478288A.
